Numbering of substitutions follows the chain as printed. Entries after “also recorded” stand apart in the source; their conditions may differ.
B1: #7-34: chicken-mouse chimeric anti-FSTL1 antibody clone; variable regions SEQ ID NO: 787 (light), 789 (heavy) (antibody, V domains shown)
VH: AVTLDESGGGLQTPGGGLSLVCKASGFTFSSVTMQWVRQAPGKGLEWVASICSGSSTYYGPAVKGRATISRDNGQNTVRLQLNNLRAEDTATYYCAKIVGRGRWSCTSAAYNIDAWGHGTEVIVSS
VL: ASTQPSSVSANPGETVKITCSGGGNNYGWYQQKSPGSAPVTVIYYNNNRPSNIPSRFSGSTSGSTSTLTITGVQAEDEAVYYCGSYEGSTDSGIFGAGTTLTVL
modifications: mouse constant regions
B2: #5-43: chicken-mouse chimeric anti-FSTL1 antibody clone; variable regions SEQ ID NO: 779 (light), 781 (heavy) (antibody, V domains shown)
VH: AVTLDESGGGLQTPGGGLSLVCKGSGFTFSSFNMFWVRQAPGKGLEWVAGIGKDGGTGYGAAVDGRATISKDSGQSTLRLQLNNLRAEDTGTYYCAKAAGGCSYDWCGAYTGDIDTWGHGTEVIVSS
VL: ASTQPSSVSANPGEAVKITCSGGSGSYYGWYQQKSPGSAPVTVIYNNNQRPSDIPSRFSGSKSGSTATLTITGVQAEDEAVYFCGGYDSSTGHGGIFGAGTTLTVL
modifications: mouse constant regions
B3: #5-8: chicken-mouse chimeric anti-FSTL1 antibody clone; variable regions SEQ ID NO: 771 (light), 773 (heavy) (antibody, V domains shown)
VH: B2 VH with G56V, T57P, G58K, A61T, S73N, L78M, Y94F, A109I
VL: B2 VL
modifications: mouse constant regions
B4: #5-3: chicken-mouse chimeric anti-FSTL1 antibody clone; variable regions SEQ ID NO: 767 (light), 769 (heavy) (antibody, V domains shown)
VH: B2 VH with G17A, T28S, G56V, T57P, G58K, S73N, L78M, Y94F, A109I, T111A
VL: ASTQPSSVSANPGETVKITCSGGSGYYYGWYQQKSPGSVPVTVIYNNNNRPSDIPSRFSGSKSGSTGTLTITGVRAEDEAVYYCGGYDNSGTGIFGAGTTLTVL
modifications: mouse constant regions
B5: #6-55: chicken-mouse chimeric anti-FSTL1 antibody clone; variable regions SEQ ID NO: 783 (light), 785 (heavy) (antibody, V domains shown)
VH: AVTLDESGGGLQTPGGALSLVCKGSGFTFTSVTMQWVRQAPGKGLEWVASVCSGSSTYYAPAVKGRATISRDNGQSTVRLQLSNLRPEDTGTYYCAKIAGRARWSCTSAAYNIDAWGHGTEVIVSS
VL: B1 VL with N11I, K33R, N47D, E76D, V80I, Y86W, E87D, G88S, S89N
modifications: mouse constant regions
B6: #8-1: chicken-mouse chimeric anti-FSTL1 antibody clone; variable regions SEQ ID NO: 791 (light), 793 (heavy) (antibody, V domains shown)
VH: B2 VH with G17A, G56V, T57P, G58K, S73N, L78M, Y94F, A109I, T111A
VL: B2 VL with T91S
modifications: mouse constant regions
B7: #8-4: chicken-mouse chimeric anti-FSTL1 antibody clone; variable regions SEQ ID NO: 795 (light), 797 (heavy) (antibody, V domains shown)
VH: B2 VH with F29L, I51V, G58A, K71R, L78V, Y94F, D105S, T111V, I114L, T116A
VL: B4 VL with T3S, V39A, N48D, R50K, R75Q, A76V, Y83F
modifications: mouse constant regions
B8: #5-2: chicken-mouse chimeric anti-FSTL1 antibody clone; variable regions SEQ ID NO: 763 (light), 765 (heavy) (antibody, V domains shown)
VH: B2 VH with I51V, S73N, D105G, A109S, T111V, T116A
VL: B2 VL
modifications: mouse constant regions
B9: #8-7: chicken-mouse chimeric anti-FSTL1 antibody clone; variable regions SEQ ID NO: 799 (light), 801 (heavy) (antibody, V domains shown)
VH: B2 VH with G56V, T57P, G58K, S73N, Y94F, A109I, T111A
VL: B2 VL
modifications: mouse constant regions

What follows are molecules tested on induction of mesenchymal stem cells (MSCs) by FSTL1 (assay: Inhibitory activity against induction of MSC by FSTL1, CD45-negative cells (Examples 6, 8, 12)). Details: Example 6, FIG. 5A/35A; FSTL1 50 ng/mL; antibody 10 μg/mL; 11 days.
Type: cell-based, mouse
Experimental: (§1) Mouse bone marrow cells prepared in the same way as in Example 4 were supplemented with 50 ng/mL (final concentration) of FSTL1 and 10 μg/mL of the anti-FSTL1 antibody (#5-2, #5-3, #5-8, #5-10, 45-43, #6-55, or #7-34) or a control antibody anti-DNP antibody and cultured under stimulation. 11 days thereafter, the number of cells was counted while the cells were stained with a PE-Cy5-labeled anti-CD45 antibody (BD Pharmingen/Becton, Dickinson and Company, Cat. No. 555484), and the content of CD45-negative cells reported to generally contain MSCs at a high rate was analyzed by flow cytometry using FACScan to calculate the percentage and number of MSCs per culture (FIG. 5A).
(§2) Mouse bone marrow cells prepared in the same way as in Example 4 were supplemented with 20 ng/mL (final concentration) of FSTL1 and 10 μg/mL of the anti-FSTL1 antibody (#5-2, #5-3, #5-8, #5-10, #5-43, #6-55, #8-1, #8-4, #8-7, and #8-8) or a control antibody anti-DNP antibody and cultured under stimulation. 8 days thereafter, the number of cells was counted while the cells were stained with a PE-Cy5-labeled anti-CD45 antibody, and the content of CD45-negative cells was analyzed by flow cytometry using FACScan to calculate the percentage and number of MSCs per culture (FIG. 6A).
as §2, with “(#5-2,” for “(#5-2, #5-3,”, “#5-8,” for “#5-8, #5-10, #5-43,”, “#6-55, #7-34,” for “#6-55,”, “#8-7, or” for “#8-7, and”, “(FIG. 7).” for “(FIG. 6A).”
as §1, with “35A).” for “5A).”
as §2, with “36A).” for “6A).”
as §2, with “(#5-2,” for “(#5-2, #5-3,”, “#5-8,” for “#5-8, #5-10, #5-43,”, “#6-55, #7-34,” for “#6-55,”, “#8-7, or” for “#8-7, and”, “(FIG. 37).” for “(FIG. 6A).”

Row | Molecule | inhibitory activity against the expansion of CD45-negative cells by FSTL1
1 | B1 | higher inhibitory activity and substantially completely inhibited the action of FSTL1
2 | B2 | higher inhibitory activity and substantially completely inhibited the action of FSTL1
3 | B3 | higher inhibitory activity and substantially completely inhibited the action of FSTL1
4 | B4 | higher inhibitory activity and substantially completely inhibited the action of FSTL1

Same assay, conditions: Example 8, FIG. 6A/36A; FSTL1 20 ng/mL; antibody 10 μg/mL; 8 days

Row | Molecule | inhibitory activity against the expansion of CD45-negative cells by FSTL1
5 | B5 | exhibited inhibitory activity against the expansion of CD45-negative cells by FSTL1; also recorded: Inhibitory activity was confirmed
6 | B2 | exhibited inhibitory activity against the expansion of CD45-negative cells by FSTL1; also recorded: Inhibitory activity was confirmed
7 | B3 | exhibited inhibitory activity against the expansion of CD45-negative cells by FSTL1; also recorded: Inhibitory activity was confirmed
8 | B6 | exhibited inhibitory activity against the expansion of CD45-negative cells by FSTL1; also recorded: Inhibitory activity was confirmed
9 | B7 | exhibited inhibitory activity against the expansion of CD45-negative cells by FSTL1

Same assay, conditions: Example 12, FIG. 7/37; FSTL1 20 ng/mL; antibody 10 μg/mL; 8 days

Row | Molecule | inhibitory activity against the expansion of CD45-negative cells by FSTL1
10 | B5 | higher inhibitory activity was confirmed in the order of #7-34, #5-2, #6-55, and #8-7
11 | B1 | higher inhibitory activity was confirmed in the order of #7-34, #5-2, #6-55, and #8-7; also recorded: stronger inhibitory activity was confirmed in the order of clone #7-34, #5-2, 46-55, and #8-7
12 | B8 | higher inhibitory activity was confirmed in the order of #7-34, #5-2, #6-55, and #8-7; also recorded: stronger inhibitory activity was confirmed in the order of clone #7-34, #5-2, 46-55, and #8-7
13 | B9 | higher inhibitory activity was confirmed in the order of #7-34, #5-2, #6-55, and #8-7; also recorded: stronger inhibitory activity was confirmed in the order of clone #7-34, #5-2, 46-55, and #8-7
